The data set in a line: soluble fraction after stress (log2 fold change); higher = more stays soluble; pooled small domains, quantitative proteomics. The settings on record: stress: pH 4. Put shortly: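 Values are on a log2 scale, where higher means more of the domain stayed soluble after pH 4 stress. They are fold changes in the soluble amount of each domain from pooled custom libraries, measured by high-throughput quantitative proteomics. The fold change is taken to reflect aggregation propensity.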
As for “HMGKTIIQLATDYLIKNMQPKSLHDIESYVLTRKKIKKSSIGAILLSKPNIFGRTEDGLFGLRIWNNFQYT”, the “soluble fraction (log2)” value is -0.14.
For “HMGKTRSTDRTRRAILDAASDLMGKHGTSVSLARIAEAAGMSKGGLLHHFPSRNDLIRALGED”, the “soluble fraction (log2)” value worked out at 0.396.
Turning to “HMGKVNTRNRNEGKFYKNGKKKPANWEYRFEAAPVNGKRQQISDAGYPTEKAAYEAGIAAYEKYNSAGSVN”, the “soluble fraction (log2)” value was 0.0128.
With “HMGKVTILSNPVKDALVIMGLHNAETIDVRLFDNTGRLVMQGSQSRMDISSLSPGLYILQVNGKILKVIK”, the “soluble fraction (log2)” value was -0.222.
Then “HMGLASEVKTEDVLNEEKYDFEPDLIGNNNEAIYQNKQTGSYVLFDRNQNKVTKVLSAGEVLNHSKYNE”, with 0.342; and “HMGLDQNTLDRVDDINDTLATGIEIGPETRGTIEELNETLANGLKAGFDEETLARVDELLRVVEDGLK”, with -1.15.
For “HMGLGQRIKARREALGLSQARLGEAVGVSLQAVSNWERDEYLPDTARLPLIARALGLTPGQLME”, the “soluble fraction (log2)” value worked out at 0.11.
On to “HMGLKDTEVYMPDVRGLIEEEAQTKLKASFLTMKVSYTSSDEVKKGYVISQAPSADSVVLKGASVTVIVS”, for which the “soluble fraction (log2)” value worked out at 0.112.
On to “HMGLLVPELTAEENVSLAAMIAGVPRQQARSISADLLNRLGLGQMLDRRMGEMSGGQAQRVAIAPIYGKF”, for which the “soluble fraction (log2)” value was -0.129.
Consider “HMGLNVSYRMDGENVVETIIFSGATMIRTVTPTGTMTIKTIENGSTSTAKVNADYSVYKKIYEAQY”, for which the “soluble fraction (log2)” value is -1.03.
Turning to “HMGLPLETVVTHATKLEIVRDGRVSGSIGLSAGVKVDVIALEGDNLQVRYRSLSGRVPVAHTGLAALA”, the “soluble fraction (log2)” value is -0.533.
Consider “HMGLPPIATGVNDNMSFSQAFAAARAEVGAGGAFEWHGRVYGTYYKNEWDGMSAQERHDFEIAAIRGS”, for which the “soluble fraction (log2)” value was -0.0114.
Turning to “HMGLSIPLMGAKASDIEISTLNDEVQRKLKIIVKEQGHENLQRVVPLPSEAREIQAHFINGRLHLR”, the “soluble fraction (log2)” value turned out to be 0.214.
As to “HMGLYPYSGTPADNQEANERRIFDIYSTHLERIFSDFSGATLRTKRLVLRLMQELVHSDPVRMAGILDEL”, the “soluble fraction (log2)” value worked out at 0.1.
On to “HMGMAQELMESRLTAVFTSGKDQLAVLQRKDGSTLKLGADSKPWRIESFDGRKAVFVSADQQRVERLL”, for which the “soluble fraction (log2)” value was -0.599.
As to “HMGMGIGQIIKEKRTALKMTQNELAERLGVSQQSVTGWENNAAVPRESAVRGMMDIFGLSRNELFGEP”, the “soluble fraction (log2)” value worked out at 0.0969.
Under “HMGMMTLGQRIAQYRKAMGISQEELGGRLGVSRQAVSKWETDAAAPDMENLLALAREFGVSVAELTETP” stands -0.11; under “HMGMTRPLFVTDPGLVRIGLVSPIFEKLGSGKLSPQLFDQVKEDPPEQTVFDGVEFARETGIDGVIGFG”, 0.0343; under “HMGMVDKSMYSRYDVGDLVKVLRGPLEGSEGHITEINTDTGTVKVETVFFGRSTVVEVDFSEIDK”, -1.35.
With “HMGNAQELQKKLEGLKGISGIEKLESDHYAEKYLVRITQPVDHKNPAAGTFTQRVIVAHVGFDRPTILVT”, the “soluble fraction (log2)” value turned out to be 0.318.
In the case of “HMGNHRNMSAEEEAAILAPFKARAEAGELVEISEIAKAYQSAVDHPISRGQIYFVLHRHGWRKV”, the “soluble fraction (log2)” value was -0.638.
As for “HMGNIALAIARFREMIAEDPNLQPVRLHLAMALMADHQDEAARGQLEKLRSDQLPDDIRKIVDDALAALR”, the “soluble fraction (log2)” value is -0.487.
Turning to “HMGNIIITPNPASDFIKIISNSPIIKFGFYDIYGNTINKKFNDNSINISDLPVGMYLINLNERYFKLLK”, the “soluble fraction (log2)” value came out at 0.021.
Then “HMGNIITQEAAVKLAQDRVPNATLVKIEYDFDDGRPVYEGELREGRWEYEFEIDAATGEFLKWEKD”, with -0.163; and “HMGNKWKPIILYLLSNGSMRFGMLNALIPTISKKVLTNQLKELENDGLLLRQSFAEIPPRVEYSLTEKA”, with 0.165.
In the case of “HMGNLASGAYEQIKRRILSLEYLPGSILQERGLAEELGISRTPVREAIHRLSQEGWLKINSRKNIRVR”, the “soluble fraction (log2)” value is -0.482.
Regarding “HMGNLASRVAEQLLDKMRGDSLVPGTRLPSEIAMAKHFGVSRTVMREAIARLKADGLLETRRGSGAFVLAT”, the “soluble fraction (log2)” value is -0.0652.
For “HMGNLEENFRLKAGTEDGAWEFIRYHLGKLPVVNESNGTAIVNAERQAFLLFDRMVAFHIQRGVMVPLSAP”, the “soluble fraction (log2)” value was -0.159.
“HMGNLVDGINKKLTHVRDSLPEGYTLDEFKSAFQQQYPAAYDAYEGDKGKQFDKWLGNVIQSLPKK”: the “soluble fraction (log2)” value turned out to be 0.137.
“HMGNNSIDIKDVIYNLVEISQLQAFDIVKHFKTWENLVNKPDELDTVIDGDSDIVDRIKYKIKSLS”: the “soluble fraction (log2)” value is -0.568.
On to “HMGNQALSSVLSDIAGIGPVKTKELLRVYPDLDSLRQAPVEEVAKVKGIGRQLAQKIHDHFSSR”, for which the “soluble fraction (log2)” value is -0.0357.
Take “HMGNRWENLISNKMIDDVDEELLRKYIAQAHDAGRIAISYTDRKTVLNQLELTDGDRLLNAGKVLFSD”: the “soluble fraction (log2)” value was -0.657.
In the case of “HMGNTTEVLVATQDVKANTKIKESMFTTERVDTASLPDNYLSADSAKDVVGYYTYIGFTKGSVISKSNIAT”, the “soluble fraction (log2)” value was 0.0364.
Consider “HMGNVRSWKGWTSAGGTRVQMRQGDSINSMARRYGVPIQAIVAVNGIDDPAKVQPGQSVIIPTYVY”, for which the “soluble fraction (log2)” value was found to be 0.118.
With “HMGNWEQQLRSWADGELATGKQDILTTAVPAFERALIETALSHTNGRKRDAAELLGWGRNTLTRKLKELGM”, the “soluble fraction (log2)” value is -0.46.
Then “HMGNYEEAILAFEAAIKIDPKNADAYRKLAEAYEKTGDEDAALRTLETGAEATGDRELADLAEKKRQELDA”, with 0.22; and “HMGPASTGAHQLGLKPGDEVTHRAWGEGVVTSTTGEGDRAEAVVDFDAVGEKRLLLAWAPLER”, with -0.705; and “HMGPDTVDRTRRFKWVDNEVVVNFGKNAGRTLRDLAENDPGFLRWIVRSDFSDEVRTIANDALMGKFPTRK”, with -0.151.
Under “HMGPEAFPVPYVVDIELDRAIYVIEQSGFIVGQKLEANDNNVPRGFVISQNPPAGTKLGPESIVDLVVSS” stands -0.281; under “HMGPLDIAQLKSDFLGGDAQLARRAWDQLATKAGDEGRDFLISSLGSSDPQIRNRVALGIHES”, -0.152; under “HMGPLTMGQRIVRLRTQAGLSQDALAEQLGVSRQSVSKWETDGSVPDLDRLVKLSKVFGVTLDELVKG”, not below 0.43.
With “HMGPPAVGAKLQVLRQARKLSLDELSRRAGVSKSMLSQVERNLANPTVAVLWRLATALGVGLADFLSP”, the “soluble fraction (log2)” value was -0.524.
Then “HMGPRVSAGPGRHRVQPGDTLDDIAARYRVSSRDLMLVNGLRNANHVEAGQTLKLPSNAVIA”, with not below 0.43.
Take “HMGPSLIRIASNPVAEVFIDGTRVGTTPFEMPADGTLKTVRLTAKDHDDLVVPLRSMKSMEIMLTLRRI”: the “soluble fraction (log2)” value was -0.136.
As to “HMGPTLTDEEEVVLNLLEKNHPVLLSELKENAGLSNKKWDKAIKGLSAHKLAKVTKTDDGLFVHLS”, the “soluble fraction (log2)” value was -0.167.
For the sequence “HMGPTPTSAQLTEAKRLRTKLDDLNPELAERLWSEHREPYTETQYQTLIEKLAAEVQSAEGEIGR”, the “soluble fraction (log2)” value came to 0.351.
Then “HMGPVRRDLEINGRMVPLTIREHARATRITLRIEPGGQALRLTIPPGLPTREVDSFLTRHHGWLMTKLAHI”, with 0.0131; and “HMGPWTETAAKGDAVSKRMLITWLQENADAEFLAAQKLTGQATSVAKRVTKDQLVELYLSVTTAA”, with -0.149.
Then “HMGQAAHYEGVKGDGESDTDVISRVLTAAGAEAQKDDIFVVKELIAGGKYSYTAYVYDGSVWAAM”, with -0.502; and “HMGQAEEVRYSTFLDEVRNGRIEQVVLQGEHIIGTRKDKTVFSVFNPETDYTALIGTLSKSGVTIEGRP”, with 0.103.

The values are drawn from the domain aggregation screens of Martell et al. (2025).
